Measured values taken from article PMC7988105.

Tests used:
[1] = molecular target: NRXN1β (lacking SS4) Fc fusion used as bait in the pull-down; assay: pull-down; conditions: chain shown with the change;; parent: est. 100; read off a plot
[2] = molecular target: PTPδA3B– extracellular domain fused to Fc (mouse); assay: pull-down; soluble recombinant proteins mixed at 0.03 μM each in HBSS, 2 mM CaCl2, 1 mM MgCl2, 3 h, then Protein A-Sepharose 1 h, room temperature; NLGN3-His6 detected with anti-His
Chain of PTPδA3B– extracellular domain fused to Fc (mouse) (Q64487 other isoform, or with tags, fused parts or gaps mutant): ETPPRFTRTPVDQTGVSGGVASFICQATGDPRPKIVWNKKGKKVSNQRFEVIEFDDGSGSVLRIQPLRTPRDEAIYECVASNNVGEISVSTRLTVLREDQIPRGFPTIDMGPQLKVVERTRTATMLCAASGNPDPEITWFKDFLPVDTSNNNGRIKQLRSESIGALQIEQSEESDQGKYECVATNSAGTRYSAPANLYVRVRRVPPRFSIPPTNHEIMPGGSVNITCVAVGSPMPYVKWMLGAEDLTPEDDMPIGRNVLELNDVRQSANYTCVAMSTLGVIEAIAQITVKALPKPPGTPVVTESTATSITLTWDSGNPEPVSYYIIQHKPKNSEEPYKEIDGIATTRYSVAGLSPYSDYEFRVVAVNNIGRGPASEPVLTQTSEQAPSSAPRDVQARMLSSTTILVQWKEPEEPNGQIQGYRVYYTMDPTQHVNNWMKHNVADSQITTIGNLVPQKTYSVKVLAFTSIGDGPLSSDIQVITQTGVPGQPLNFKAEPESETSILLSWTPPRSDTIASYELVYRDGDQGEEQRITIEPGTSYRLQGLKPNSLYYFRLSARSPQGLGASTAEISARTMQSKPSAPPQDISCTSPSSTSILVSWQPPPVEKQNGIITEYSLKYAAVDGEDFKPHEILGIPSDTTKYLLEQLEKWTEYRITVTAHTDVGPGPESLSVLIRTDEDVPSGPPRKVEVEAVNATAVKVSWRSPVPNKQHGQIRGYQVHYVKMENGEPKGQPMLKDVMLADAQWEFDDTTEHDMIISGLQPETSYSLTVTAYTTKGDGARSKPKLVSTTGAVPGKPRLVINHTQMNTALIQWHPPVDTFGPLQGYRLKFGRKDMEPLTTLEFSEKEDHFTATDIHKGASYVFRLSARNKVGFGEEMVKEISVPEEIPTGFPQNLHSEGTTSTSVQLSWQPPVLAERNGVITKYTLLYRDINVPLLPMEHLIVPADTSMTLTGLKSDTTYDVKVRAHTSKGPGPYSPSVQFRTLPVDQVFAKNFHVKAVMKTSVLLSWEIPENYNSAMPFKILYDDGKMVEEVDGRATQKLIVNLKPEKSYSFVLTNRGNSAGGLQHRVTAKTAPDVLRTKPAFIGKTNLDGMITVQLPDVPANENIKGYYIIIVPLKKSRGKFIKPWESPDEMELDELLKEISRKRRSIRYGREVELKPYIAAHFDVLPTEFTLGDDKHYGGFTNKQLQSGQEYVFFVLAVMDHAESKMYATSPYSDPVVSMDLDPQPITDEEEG

Chain of NRXN1β (lacking SS4) Fc fusion used as bait in the pull-down (chain, as listed by the source): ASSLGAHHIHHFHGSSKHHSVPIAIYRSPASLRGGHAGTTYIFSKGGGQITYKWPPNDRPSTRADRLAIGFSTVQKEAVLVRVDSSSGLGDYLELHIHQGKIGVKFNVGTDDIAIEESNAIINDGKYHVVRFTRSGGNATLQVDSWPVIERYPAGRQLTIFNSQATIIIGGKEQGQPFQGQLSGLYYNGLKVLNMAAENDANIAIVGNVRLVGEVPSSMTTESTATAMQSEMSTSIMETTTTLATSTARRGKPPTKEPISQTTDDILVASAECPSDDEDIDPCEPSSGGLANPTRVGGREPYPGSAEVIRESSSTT

Row | Binder | percent of parent [1] [% WT] | pulldown efficiency (% of wild-type) (% of wild-type) [2]
1 | mouse NLGN3 ECD (residues 35–684) with C-terminal His6 tag, Q8BYM5 H279A; S280A; E281A (protein) QAPAPTVNTHFGKLRGARVPLPSEILGPVDQYLGVPYAAPPIGEKRFLPPEPPPSWSGIRNATHFPPVCPQNIHTAVPEVMLPVWFTANLDIVATYIQEPNEDCLYLNVYVPTEDGSGAKKQGEDLADNDGDEDEDIRDSGAKPVMVYIHGGSYMEGTGNMIDGSVLASYGNVIVITLNYRVGVLGFLSTGDQAAKGNYGLLDQIQALRWVSENIAFFGGDPRRITVFGSGIGASCVSLLTLSHAAAGLFQRAIIQSGSALSSWAVNYQPVKYTSLLADKVGCNVLDTVDMVDCLRQKSAKELVEQDIQPARYHVAFGPVIDGDVIPDDPEILMEQGEFLNYDIMLGVNQGEGLKFVEGVVDPEDGVSGTDFDYSVSNFVDNLYGYPEGKDTLRETIKFMYTDWADRDNPETRRKTLVALFTDHQWVEPSVVTADLHARYGSPTYFYAFYHHCQSLMKPAWSDAAHGDEVPYVFGVPMVGPTDLFPCNFSKNDVMLSAVVMTYWTNFAKTGDPNKPVPQDTKFIHTKANRFEEVAWSKYNPRDQLYLHIGLKPRVRDHYRATKVAFWKHLVPHLYNLHDMFHYTSTTTKVPPPDTTHSSHITRRPNGKTWSTKRPAISPAYSNENAPGSWNGDQDAGPLLVENPRDYSTE | 22 | –
2 | mouse NLGN3 ECD (residues 35–684) with C-terminal His6 tag, Q8BYM5 D362A; E372A; N375A (protein) QAPAPTVNTHFGKLRGARVPLPSEILGPVDQYLGVPYAAPPIGEKRFLPPEPPPSWSGIRNATHFPPVCPQNIHTAVPEVMLPVWFTANLDIVATYIQEPNEDCLYLNVYVPTEDGSGAKKQGEDLADNDGDEDEDIRDSGAKPVMVYIHGGSYMEGTGNMIDGSVLASYGNVIVITLNYRVGVLGFLSTGDQAAKGNYGLLDQIQALRWVSENIAFFGGDPRRITVFGSGIGASCVSLLTLSHHSEGLFQRAIIQSGSALSSWAVNYQPVKYTSLLADKVGCNVLDTVDMVDCLRQKSAKELVEQDIQPARYHVAFGPVIDGDVIPADPEILMEQGAFLAYDIMLGVNQGEGLKFVEGVVDPEDGVSGTDFDYSVSNFVDNLYGYPEGKDTLRETIKFMYTDWADRDNPETRRKTLVALFTDHQWVEPSVVTADLHARYGSPTYFYAFYHHCQSLMKPAWSDAAHGDEVPYVFGVPMVGPTDLFPCNFSKNDVMLSAVVMTYWTNFAKTGDPNKPVPQDTKFIHTKANRFEEVAWSKYNPRDQLYLHIGLKPRVRDHYRATKVAFWKHLVPHLYNLHDMFHYTSTTTKVPPPDTTHSSHITRRPNGKTWSTKRPAISPAYSNENAPGSWNGDQDAGPLLVENPRDYSTE | 18 | –
3 | NLGN3 ECD R448C mutant (R/C; equivalent to human R451C) with His6 tag, Q8BYM5 35-684 (domain or fragment) QAPAPTVNTHFGKLRGARVPLPSEILGPVDQYLGVPYAAPPIGEKRFLPPEPPPSWSGIRNATHFPPVCPQNIHTAVPEVMLPVWFTANLDIVATYIQEPNEDCLYLNVYVPTEDGSGAKKQGEDLADNDGDEDEDIRDSGAKPVMVYIHGGSYMEGTGNMIDGSVLASYGNVIVITLNYRVGVLGFLSTGDQAAKGNYGLLDQIQALRWVSENIAFFGGDPRRITVFGSGIGASCVSLLTLSHHSEGLFQRAIIQSGSALSSWAVNYQPVKYTSLLADKVGCNVLDTVDMVDCLRQKSAKELVEQDIQPARYHVAFGPVIDGDVIPDDPEILMEQGEFLNYDIMLGVNQGEGLKFVEGVVDPEDGVSGTDFDYSVSNFVDNLYGYPEGKDTLRETIKFMYTDWADRDNPETRCKTLVALFTDHQWVEPSVVTADLHARYGSPTYFYAFYHHCQSLMKPAWSDAAHGDEVPYVFGVPMVGPTDLFPCNFSKNDVMLSAVVMTYWTNFAKTGDPNKPVPQDTKFIHTKANRFEEVAWSKYNPRDQLYLHIGLKPRVRDHYRATKVAFWKHLVPHLYNLHDMFHYTSTTTKVPPPDTTHSSHITRRPNGKTWSTKRPAISPAYSNENAPGSWNGDQDAGPLLVENPRDYSTE | – | 20

Second part, the binder after the results:

Row | percent of parent [1] [% WT] | pulldown efficiency (% of wild-type) (% of wild-type) [2] | Binder
4 | 104 | – | mouse NLGN3 ECD (residues 35–684) with C-terminal His6 tag, Q8BYM5 M614A; F615A (protein) QAPAPTVNTHFGKLRGARVPLPSEILGPVDQYLGVPYAAPPIGEKRFLPPEPPPSWSGIRNATHFPPVCPQNIHTAVPEVMLPVWFTANLDIVATYIQEPNEDCLYLNVYVPTEDGSGAKKQGEDLADNDGDEDEDIRDSGAKPVMVYIHGGSYMEGTGNMIDGSVLASYGNVIVITLNYRVGVLGFLSTGDQAAKGNYGLLDQIQALRWVSENIAFFGGDPRRITVFGSGIGASCVSLLTLSHHSEGLFQRAIIQSGSALSSWAVNYQPVKYTSLLADKVGCNVLDTVDMVDCLRQKSAKELVEQDIQPARYHVAFGPVIDGDVIPDDPEILMEQGEFLNYDIMLGVNQGEGLKFVEGVVDPEDGVSGTDFDYSVSNFVDNLYGYPEGKDTLRETIKFMYTDWADRDNPETRRKTLVALFTDHQWVEPSVVTADLHARYGSPTYFYAFYHHCQSLMKPAWSDAAHGDEVPYVFGVPMVGPTDLFPCNFSKNDVMLSAVVMTYWTNFAKTGDPNKPVPQDTKFIHTKANRFEEVAWSKYNPRDQLYLHIGLKPRVRDHYRATKVAFWKHLVPHLYNLHDAAHYTSTTTKVPPPDTTHSSHITRRPNGKTWSTKRPAISPAYSNENAPGSWNGDQDAGPLLVENPRDYSTE
5 | 115 | – | mouse NLGN3 ECD (residues 35–684) with C-terminal His6 tag, Q8BYM5 M614I; F615S (protein) QAPAPTVNTHFGKLRGARVPLPSEILGPVDQYLGVPYAAPPIGEKRFLPPEPPPSWSGIRNATHFPPVCPQNIHTAVPEVMLPVWFTANLDIVATYIQEPNEDCLYLNVYVPTEDGSGAKKQGEDLADNDGDEDEDIRDSGAKPVMVYIHGGSYMEGTGNMIDGSVLASYGNVIVITLNYRVGVLGFLSTGDQAAKGNYGLLDQIQALRWVSENIAFFGGDPRRITVFGSGIGASCVSLLTLSHHSEGLFQRAIIQSGSALSSWAVNYQPVKYTSLLADKVGCNVLDTVDMVDCLRQKSAKELVEQDIQPARYHVAFGPVIDGDVIPDDPEILMEQGEFLNYDIMLGVNQGEGLKFVEGVVDPEDGVSGTDFDYSVSNFVDNLYGYPEGKDTLRETIKFMYTDWADRDNPETRRKTLVALFTDHQWVEPSVVTADLHARYGSPTYFYAFYHHCQSLMKPAWSDAAHGDEVPYVFGVPMVGPTDLFPCNFSKNDVMLSAVVMTYWTNFAKTGDPNKPVPQDTKFIHTKANRFEEVAWSKYNPRDQLYLHIGLKPRVRDHYRATKVAFWKHLVPHLYNLHDISHYTSTTTKVPPPDTTHSSHITRRPNGKTWSTKRPAISPAYSNENAPGSWNGDQDAGPLLVENPRDYSTE
